In the test the target is MFSD1-strep (mouse Major Facilitator Superfamily Domain Containing 1 with N-terminal Twin-Streptavidin-tag) (mouse) (UniProt Q9DC37). Briefly: nanoDSF.
Chain of UniProt Q9DC37 (Q9DC37 whole entry, the tested form may be a part): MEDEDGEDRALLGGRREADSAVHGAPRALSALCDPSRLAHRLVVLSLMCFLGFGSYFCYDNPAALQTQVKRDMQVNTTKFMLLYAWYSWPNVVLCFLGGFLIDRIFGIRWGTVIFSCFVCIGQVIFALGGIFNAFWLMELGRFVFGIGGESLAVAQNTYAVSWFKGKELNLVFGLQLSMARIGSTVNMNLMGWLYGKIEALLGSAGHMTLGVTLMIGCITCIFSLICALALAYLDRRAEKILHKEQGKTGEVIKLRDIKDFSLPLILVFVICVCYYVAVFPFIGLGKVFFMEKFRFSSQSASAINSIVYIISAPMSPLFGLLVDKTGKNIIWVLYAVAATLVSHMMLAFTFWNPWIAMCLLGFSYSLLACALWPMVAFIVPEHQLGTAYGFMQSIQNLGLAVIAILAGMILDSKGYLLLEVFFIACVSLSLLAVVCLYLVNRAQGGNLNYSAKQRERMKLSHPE

For the substance Leu-Leu (peptide), the thermal shift (ΔTm) turned out to be 14 °C.
In the case of His-Ala (peptide), the dissociation constant Kd is 6700 µM.
In the case of His-Lys (peptide), the dissociation constant (Kd) is 765 µM and the ΔTm was found to be 12 °C.
Leu-Ala (peptide) showed an equilibrium dissociation constant (Kd) of 2200 µM.
In turn, Lys-Val (peptide) had a Kd of 4300 µM.
In the case of Pro-Arg (peptide), the dissociation constant (Kd) came to 318 µM and the ΔTm was 12.1 °C.

These data come from article doi:10.1101/2023.12.15.570541.
